Values of other authors in paper PMC10404613.

Target: UBC9 (Homo sapiens) (UniProt P63279)
Chain of UniProt P63279 (P63279 2-158): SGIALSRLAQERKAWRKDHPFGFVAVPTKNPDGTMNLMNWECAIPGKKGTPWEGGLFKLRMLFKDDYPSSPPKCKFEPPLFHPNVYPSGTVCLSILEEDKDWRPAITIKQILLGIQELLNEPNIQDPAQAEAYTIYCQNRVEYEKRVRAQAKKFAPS

Kd: 100 nM
Substance: SUMO1 (from UniProt P63165)
